Reference: patent US20130149236A1 (MacroGenics, published 2013)

T1: soluble B7H3-2Ig (human, UniProt Q5ZPR3 29-466)
T1 construct: Soluble or immobilized 2Ig form; also called 2Ig-B7-H3; B7-H3 (2Ig form)
T1 sequence: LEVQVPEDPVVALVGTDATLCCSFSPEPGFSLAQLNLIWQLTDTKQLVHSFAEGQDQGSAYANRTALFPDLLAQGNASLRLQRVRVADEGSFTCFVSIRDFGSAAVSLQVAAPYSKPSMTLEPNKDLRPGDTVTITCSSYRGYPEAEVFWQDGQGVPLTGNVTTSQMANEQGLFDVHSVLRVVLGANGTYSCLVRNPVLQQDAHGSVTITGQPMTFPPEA

T2: soluble B7H3-4Ig (human, UniProt Q5ZPR3 29-466)
T2 construct: Soluble or immobilized 4Ig form; also called 4Ig-B7-H3
T2 sequence: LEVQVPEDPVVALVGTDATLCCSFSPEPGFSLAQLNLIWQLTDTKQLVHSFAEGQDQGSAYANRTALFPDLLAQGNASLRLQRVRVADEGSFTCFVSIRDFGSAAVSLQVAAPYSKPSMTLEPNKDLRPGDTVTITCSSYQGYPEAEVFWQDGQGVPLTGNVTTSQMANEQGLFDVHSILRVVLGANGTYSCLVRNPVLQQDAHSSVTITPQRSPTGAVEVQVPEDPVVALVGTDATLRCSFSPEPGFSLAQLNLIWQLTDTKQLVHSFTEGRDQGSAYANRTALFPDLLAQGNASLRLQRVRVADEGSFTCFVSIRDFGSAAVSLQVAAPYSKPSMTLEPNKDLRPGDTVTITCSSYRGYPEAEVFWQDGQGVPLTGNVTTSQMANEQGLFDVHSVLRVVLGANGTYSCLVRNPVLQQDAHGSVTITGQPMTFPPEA


What was measured:
soluble B7H3-2Ig = molecular target: T1, soluble B7H3-2Ig; assay: Specificity
soluble B7H3-4Ig = molecular target: T2, soluble B7H3-4Ig; assay: Specificity

| Binder | binding result (soluble B7H3-2Ig) | binding result (soluble B7H3-4Ig) |
| --- | --- | --- |
| BRCA84D (antibody, IgG1, V domains shown, murine mAb, IgG1/k; fluorescein-labeled in the FACS MFI columns) VH: DVQLVESGGGLVQPGGSRKLSCAASGFTFSSFGMHWVRQAPEKGLEWVAYISSDSSAIYYADTVKGRFTISRDNPKNTLFLQMTSLRSEDTAMYYCGRGRENIYYGSRLDYWGQGTTLTVSS VL: DIAMTQSQKFMSTSVGDRVSVTCKASQNVDTNVAWYQQKPGQSPKALIYSASYRYSGVPDRFTGSGSGTDFTLTINNVQSEDLAEYFCQQYNNYPFTFGSGTKLEIK | binds | binds |
| PRCA157 (antibody, IgG1, V domains shown, murine mAb, IgG1/k) VH: EVQQVESGGDLVKPGGSLKLSCAASGFTFSSYGMSWVRQTPDKRLEWVATINSGGSNTYYPDSLKGRFTISRDNAKNTLYLQMRSLKSEDTAMYYCARHDGGAMDYWGQGTSVTVSS VL: DIQMTQSPASLSVSVGETVTITCRASESIYSYLAWYQQKQGKSPQLLVYNTKTLPEGVPSRFSGSGSGTQFSLKINSLQPEDFGRYYCQHHYGTPPWTFGGGTNLEIK | binds | binds |
